Measured values: patent US20020082202A1 (GlaxoSmithKline, published 2002)
No end group written: not given here.

Molecular target: T1, HFGAN72 receptor (human, UniProt O43613 1-425)
T1 sequence (looked up): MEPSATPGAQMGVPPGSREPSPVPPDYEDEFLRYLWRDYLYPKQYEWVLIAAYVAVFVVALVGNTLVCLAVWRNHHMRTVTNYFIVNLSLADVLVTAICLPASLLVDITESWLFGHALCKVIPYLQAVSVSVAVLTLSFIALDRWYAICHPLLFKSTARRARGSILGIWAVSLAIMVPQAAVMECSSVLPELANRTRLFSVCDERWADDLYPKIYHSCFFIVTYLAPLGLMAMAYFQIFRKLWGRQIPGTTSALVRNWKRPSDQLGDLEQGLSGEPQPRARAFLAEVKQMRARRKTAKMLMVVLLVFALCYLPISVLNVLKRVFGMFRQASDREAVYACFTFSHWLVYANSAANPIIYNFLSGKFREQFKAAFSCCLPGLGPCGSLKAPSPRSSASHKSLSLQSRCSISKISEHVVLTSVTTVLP
Assay: cell-based or functional assay

- Intracellular calcium levels in Fura-loaded 293 cells transfected with the receptor; EC50: ~0.05 µg/mL
Binder: QPLPDCCRQKTCSCRLYELLHGAGNHAAGILTL (cysteine pairing not given here; also: N-terminus blocked) [Lig 72A (HFGAN72 receptor ligand)]
